This assay deals with T1, human GPR20 (Homo sapiens, UniProt Q99678).
T1 construct: expressed in transfected cells; host or cells: 293T cells, transient, Lipofectamine 2000
Description: Human GPR20-binding antibody screening by flow cytometry (hybridoma culture supernatants, transfected 293T cells). As to conditions: hybridoma culture supernatant; 293T cells transfected with pcDNA3.1-hGPR20 vs control pcDNA3.1; FIG. 18. As for the experimental part:
293T cells were seeded in a 225-cm^2 flask (Sumitomo Bakelite Co., Ltd.) at 5×10^4 cells/cm^2, and the cells were then cultured overnight under conditions of 37° C. and 5% CO2 in DMEM medium supplemented with 10% FBS. pcDNA3.1-hGPR20 or pcDNA3.1 as a negative control was introduced into the 293T cells using Lipofectamine 2000, and the cells were further cultured overnight under conditions of 37° C. and 5% CO2. The 293T cells transfected with each expression vector were treated with TrypLE Express (Life Technologies Corp.), and the cells were washed with DMEM supplemented with 10% FBS, and then suspended in PBS supplemented with 5% FBS. The obtained cell suspension was used in flow cytometry analysis.
The binding specificity to human GPR20 of an antibody produced from hybridomas that had been determined to be positive by Cell-ELISA in Example 1)-4-2 was further confirmed by flow cytometry. The suspension of the transiently expressing 293T cells prepared in Example 1)-5-1 was centrifuged, and a supernatant was then removed. Thereafter, the cells were suspended by the addition of the culture supernatant from each hybridoma. The cells were left standing at 4° C. for 1 hour. The cells were washed twice with PBS supplemented with 5% FBS, and thereafter, the cells were suspended by the addition of Anti-Rat IgG FITC conjugate (Sigma-Aldrich Co. LLC) that had been 500-fold diluted with PBS supplemented with 5% FBS. […] The data was analyzed using Flowjo (Tree Star, Inc.). After dead cells were removed from analysis by gating out 7-aminoactinomycin D-positive cells, a histogram of the FITC fluorescence intensity of live cells was generated. Hybridomas producing human GPR20-binding antibodies (178 clones) were selected based on results where the histogram for the antibody shifted to the strong fluorescence intensity side in the 293T cells transfected with pcDNA3.1-hGPR20 compared with the 293T cells transfected with the control pcDNA3.1. […] The abscissa of FIG. 18 depicts clone No., and the ordinate thereof depicts the amount of the antibody bound based on MFI (mean fluorescence intensity).
Background: Flow cytometry measures light scatter and fluorescence of single cells or particles in a stream.

Where a chain is given by its changes, count along the chain named.

T1 sequence (Q99678 whole entry): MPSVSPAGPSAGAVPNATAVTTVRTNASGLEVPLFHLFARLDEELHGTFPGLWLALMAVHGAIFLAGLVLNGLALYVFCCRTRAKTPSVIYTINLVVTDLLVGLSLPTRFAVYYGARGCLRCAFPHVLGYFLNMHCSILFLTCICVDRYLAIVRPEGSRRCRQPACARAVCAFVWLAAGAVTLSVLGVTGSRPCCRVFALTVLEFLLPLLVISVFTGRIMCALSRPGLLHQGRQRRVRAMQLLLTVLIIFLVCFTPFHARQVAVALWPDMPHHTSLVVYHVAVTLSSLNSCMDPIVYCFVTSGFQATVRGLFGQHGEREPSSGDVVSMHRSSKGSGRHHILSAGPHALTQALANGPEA

B1: 04-079: rat anti-human GPR20 antibody; heavy chain SEQ ID NO: 12, light chain SEQ ID NO: 17 (antibody, listed as Rattus norvegicus)
heavy: MEWNWVFLFLLSVTAVVHSQVQLQQSGAELAKPGSSVKISCKASGYTFTSYYITWIKQTTGQGLKYIGYINPGSGHTNYNEKFKGKATLTVDKSSSTAFMQLSSLTPDDSAVYYCARGAGGFLRIISKFDYWGQGVMVTVSSAQTTAPSVYPLAPGCGDTTSSTVTLGCLVKGYFPEPVTVTWNSGALSSDVHTFPAVLQSGLYTLTSSVTSSTWPSQTVTCNVAHPASSTKVDKKVERRNGGIGHKCPTCPTCHKCPVPELLGGPSVFIFPPKPKDILLISQNAKVTCVVVDVSEEEPDVQFSWFVNNVEVHTAQTQPREEQYNSTFRVVSALPIQHQDWMSGKEFKCKVNNKALPSPIEKTISKPKGLVRKPQVYVMGPPTEQLTEQTVSLTCLTSGFLPNDIGVEWTSNGHIEKNYKNTEPVMDSDGSFFMYSKLNVERSRWDSRAPFVCSVVHEGLHNHHVEKSISRPPGK
light: METDRLLLWVLLLWVPGSTGDTVLTQSPALAVSLGQRVTISCRASKSVSTYMHWYQQRSGQQPKLLIYSASNLESGVPSRFSGSGSGTDFTLTIDPVKADDITNYYCQQSNELPYTFGAGTKLELKRADAAPTVSIFPPSTEQLATGGASVVCLMNNFYPRDISVKWKIDGTERRDGVLDSVTDQDSKDSTYSMSSTLSLTKADYESHNLYTCEVVHKTSSSPVVKSFNRNEC
modifications: SIGNAL (1)..(19); SIGNAL (1)..(20)
As to B1, the “binding to human GPR20 (amount of the antibody bound based on MFI)” value was “specifically binding to human GPR20”.

B2: 04-046: rat anti-human GPR20 antibody; heavy chain SEQ ID NO: 2, light chain SEQ ID NO: 7 (antibody, listed as Rattus norvegicus)
heavy: B1 heavy with V16E, T54S, Y69F, V112I, S127T
light: B1 light with M52I, K98E, A99P, T103A, S110I
modifications: SIGNAL (1)..(19); SIGNAL (1)..(20)
In the case of B2, the “binding to human GPR20 (amount of the antibody bound based on MFI)” value is on record as “specifically binding to human GPR20”.

B3: 04-126: rat anti-human GPR20 antibody; heavy chain SEQ ID NO: 22, light chain SEQ ID NO: 27 (antibody, listed as Rattus norvegicus)
heavy: B1 heavy with V16E, Q24R, T54I, I56M, T60A, K65Q, I67V, A119T
light: B1 light with N72T, K98E, T103A
modifications: SIGNAL (1)..(19); SIGNAL (1)..(20)
Regarding B3, the “binding to human GPR20 (amount of the antibody bound based on MFI)” value is “specifically binding to human GPR20”.

Source of the values: US11434289B2, “Anti-GPR20 antibody and anti-GPR20 antibody-drug conjugate” (DAIICHI SANKYO COMPANY, LIMITED, priority 2017, dated 2022).
